In US20220251154A1 (HANGZHOU SUMGEN BIOTECH, published 2022):

Legend:
[1] = biological target: T1, biotin-labeled CD47 (Biotin-Fc-CD47) (UniProt Q08722 19-139, limits assumed, biotin-labeled (site not stated)); test: competition ELISA: SIRPα-His coated, Biotin-Fc-CD47 (2 ug/ml) pre-incubated with the binder; blocks CD47/SIRPα
T1 construct: not shown: Fc part

[2] = biological target: T2, PD-L1-Fc (UniProt Q9NZQ7 19-239, limits assumed); test: competition ELISA: PD-L1-Fc coated, Biotin-Fc-PD1 (1 ug/ml) added with the binder; blocks PD-1/PD-L1
T2 construct: not shown: Fc part
T2 sequence (Q9NZQ7 19-239 limits assumed): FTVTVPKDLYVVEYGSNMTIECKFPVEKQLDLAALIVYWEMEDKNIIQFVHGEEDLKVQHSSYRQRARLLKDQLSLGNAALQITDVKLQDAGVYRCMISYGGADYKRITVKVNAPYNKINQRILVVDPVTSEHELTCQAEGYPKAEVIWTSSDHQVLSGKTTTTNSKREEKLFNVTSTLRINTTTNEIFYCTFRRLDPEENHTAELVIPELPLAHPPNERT

T1 sequence (Q08722 19-139 limits assumed): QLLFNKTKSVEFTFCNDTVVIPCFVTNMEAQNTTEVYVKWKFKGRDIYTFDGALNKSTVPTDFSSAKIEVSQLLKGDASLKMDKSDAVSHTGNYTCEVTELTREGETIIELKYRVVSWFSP

IC50 [1]: 0.77 nM
IC50 [2]: 9.12 nM
B1: fusion protein SG12474 (bispecific antibody, human IgG1, kappa, N297A)
heavy: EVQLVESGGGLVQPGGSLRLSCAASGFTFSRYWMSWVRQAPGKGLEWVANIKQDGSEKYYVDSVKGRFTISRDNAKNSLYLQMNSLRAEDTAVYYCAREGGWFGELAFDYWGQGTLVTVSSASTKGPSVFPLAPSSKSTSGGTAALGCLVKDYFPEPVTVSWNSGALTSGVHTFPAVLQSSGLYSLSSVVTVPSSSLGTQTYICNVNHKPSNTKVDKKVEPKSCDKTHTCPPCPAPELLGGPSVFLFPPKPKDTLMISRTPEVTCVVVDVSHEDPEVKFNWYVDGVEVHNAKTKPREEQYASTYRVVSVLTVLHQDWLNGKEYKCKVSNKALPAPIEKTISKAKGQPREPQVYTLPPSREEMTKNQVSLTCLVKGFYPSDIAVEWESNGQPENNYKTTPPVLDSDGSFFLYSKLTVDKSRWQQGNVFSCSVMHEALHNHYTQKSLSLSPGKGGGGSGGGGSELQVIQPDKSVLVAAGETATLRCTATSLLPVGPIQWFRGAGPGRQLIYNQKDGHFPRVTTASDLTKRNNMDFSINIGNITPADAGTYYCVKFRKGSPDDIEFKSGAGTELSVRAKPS
light: EIVLTQSPGTLSLSPGERATLSCRASQRVSSSYLAWYQQKPGQAPRLLIYDASSRATGIPDRFSGSGSGTDFTLTISRLEPEDFAVYYCQQYGSLPWTFGQGTKVEIKRTVAAPSVFIFPPSDEQLKSGTASVVCLLNNFYPREAKVQWKVDNALQSGNSQESVTEQDSKDSTYSLSSTLTLSKADYEKHKVYACEVTHQGLSSPVTKSFNRGEC
notes: First polypeptide chain is the SG1202 light chain
